For 28 molecules, normalised SPOT signal, Boehringer light units (BLU); mean over the file's lines of this peptide results are on record in article PMC314469, “Protein Interaction Networks by Proteome Peptide Scanning” (PLoS Biology, 2004).

The first assay has as its target T1, amphyphisin SH3 (AMPH_HUMAN), P49418.
T1 chain: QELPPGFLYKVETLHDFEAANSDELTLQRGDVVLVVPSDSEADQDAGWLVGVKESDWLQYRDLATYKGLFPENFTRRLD
The assay can be described thus: SPOT array.
In turn, LDPLPRRPPAGRRG [BAC04326 52-66] came in with a normalised SPOT signal, Boehringer light units (BLU); mean over the file's lines of this peptide of 1100.
LDPALIRPGRIDRK [Q03527 337-350] displayed a normalised SPOT signal, Boehringer light units (BLU); mean over the file's lines of this peptide of 4590.
In turn, LELALKRPRPPVLS [Q9ULJ3 268-281] showed a normalised SPOT signal, Boehringer light units (BLU); mean over the file's lines of this peptide of 29.6.
Turning to APFLPPKPPPPIIV [Q9BYZ6 230-244], the normalised SPOT signal, Boehringer light units (BLU); mean over the file's lines of this peptide is 35.1.
LEQLLLRPERPGDT [O43157 127-140] yielded a normalised SPOT signal, Boehringer light units (BLU); mean over the file's lines of this peptide of 68.8.
Take LDGALMRPGRLDRH [Q9UQ90 461-474]: the normalised SPOT signal, Boehringer light units (BLU); mean over the file's lines of this peptide was determined as 1540.
On to LDPALRRPGRFDRE [Q9HA41 350-363], for which the normalised SPOT signal, Boehringer light units (BLU); mean over the file's lines of this peptide came to 666.
LDPALLRPGRFDKL [Q13608 854-867] returned a normalised SPOT signal, Boehringer light units (BLU); mean over the file's lines of this peptide of 944.
On the same count and under the same terms, under LDPALRRPSQKVYR [O15047 30-43] stands 37.6; under LDPALMRPGRFHRQ [O43931 13-26], 2880; under LDPALLRPGRFDRQ [Q9Y4W6 459-472], 806.
The molecule LDSILRRPYVTSQP [Q9Y5K1 339-352] showed a normalised SPOT signal, Boehringer light units (BLU); mean over the file's lines of this peptide of 10.6.
Regarding LDASPRRPPGPTTS [Q01970 912-926], the normalised SPOT signal, Boehringer light units (BLU); mean over the file's lines of this peptide was 210.
Same read-out and setting: under LEQAFRRPNVNLTS [Q8WVX9 331-344] stands 43.1; under APELLKRPKEYTVR [O14897 560-573], 28; under LERRLKRPRTQGVV [Q9H9E5 251-264], 34.4.
For LEIPPPKPPAPEMN [Q96F28 217-231], the normalised SPOT signal, Boehringer light units (BLU); mean over the file's lines of this peptide was determined as 31.6.
The molecule LDPALMRPGRLDRK [P35998 327-340] had a normalised SPOT signal, Boehringer light units (BLU); mean over the file's lines of this peptide of 4700.
Take LEESPWKPPTYLFS [Q9P239 478-492]: the normalised SPOT signal, Boehringer light units (BLU); mean over the file's lines of this peptide is 39.8.
Regarding APEPPPRPPPALSP [Q96NP9 14-28], the normalised SPOT signal, Boehringer light units (BLU); mean over the file's lines of this peptide was 962.
For the molecule LEFPPRRPFARRRM [O00513 852-865], the normalised SPOT signal, Boehringer light units (BLU); mean over the file's lines of this peptide came to 241.
For LEDSPKRPKEAENP [P51858 162-175], the normalised SPOT signal, Boehringer light units (BLU); mean over the file's lines of this peptide is 12.6.
In turn, LEIPPPKPPAPLLH [Q8WXI9 364-378] registered a normalised SPOT signal, Boehringer light units (BLU); mean over the file's lines of this peptide of 36.7.
LDSALLRPGRIDRK [P47210 301-314]: the normalised SPOT signal, Boehringer light units (BLU); mean over the file's lines of this peptide came to 1620.
The molecule LSYSLYRPRKYLYV [Q9Y6D4 264-277] had a normalised SPOT signal, Boehringer light units (BLU); mean over the file's lines of this peptide of 137.
As for LDNALIRPGRFDMQ [Q9Y2Q2 234-247], the normalised SPOT signal, Boehringer light units (BLU); mean over the file's lines of this peptide is 240.
LDPALLRPGRLDRK [P43686 317-330] showed a normalised SPOT signal, Boehringer light units (BLU); mean over the file's lines of this peptide of 2030.
Turning to LDMALRRPPRLRLS [Q8WWL8 44-57], the normalised SPOT signal, Boehringer light units (BLU); mean over the file's lines of this peptide came out at 4180.

The target in another assay is endophilin SH3 (SH3G2_HUMAN), Q99962. The assay can be described thus: SPOT array.
LDPLPRRPPAGRRG [BAC04326 52-66] showed a normalised SPOT signal, Boehringer light units (BLU); mean over the file's lines of this peptide of 4540.
In turn, LDPALIRPGRIDRK [Q03527 337-350] showed a normalised SPOT signal, Boehringer light units (BLU); mean over the file's lines of this peptide of 75.3.
LELALKRPRPPVLS [Q9ULJ3 268-281] returned a normalised SPOT signal, Boehringer light units (BLU); mean over the file's lines of this peptide of 129.
Still for that read-out and setting: the value for APFLPPKPPPPIIV [Q9BYZ6 230-244] was 1320; that for LEQLLLRPERPGDT [O43157 127-140] was 147.
LDGALMRPGRLDRH [Q9UQ90 461-474] came in with a normalised SPOT signal, Boehringer light units (BLU); mean over the file's lines of this peptide of 1590.
LDPALRRPGRFDRE [Q9HA41 350-363] came in with a normalised SPOT signal, Boehringer light units (BLU); mean over the file's lines of this peptide of 159.
LDPALLRPGRFDKL [Q13608 854-867]: the normalised SPOT signal, Boehringer light units (BLU); mean over the file's lines of this peptide was 0.
For LDPALRRPSQKVYR [O15047 30-43], the normalised SPOT signal, Boehringer light units (BLU); mean over the file's lines of this peptide was determined as 108.
Still for that read-out and setting: under LDPALMRPGRFHRQ [O43931 13-26] stands 311.
The molecule LDPALLRPGRFDRQ [Q9Y4W6 459-472] returned a normalised SPOT signal, Boehringer light units (BLU); mean over the file's lines of this peptide of 139.
Still for that read-out and setting: the value for LDSILRRPYVTSQP [Q9Y5K1 339-352] was 54.4; that for LDASPRRPPGPTTS [Q01970 912-926] was 1090; that for LEQAFRRPNVNLTS [Q8WVX9 331-344] was 42.5.
With APELLKRPKEYTVR [O14897 560-573], the normalised SPOT signal, Boehringer light units (BLU); mean over the file's lines of this peptide stood at 29.7.
Turning to LERRLKRPRTQGVV [Q9H9E5 251-264], the normalised SPOT signal, Boehringer light units (BLU); mean over the file's lines of this peptide was determined as 20.
On to LEIPPPKPPAPEMN [Q96F28 217-231], for which the normalised SPOT signal, Boehringer light units (BLU); mean over the file's lines of this peptide is 43.4.
LDPALMRPGRLDRK [P35998 327-340] gave a normalised SPOT signal, Boehringer light units (BLU); mean over the file's lines of this peptide of 346.
Same read-out and setting: the value for LEESPWKPPTYLFS [Q9P239 478-492] was 53.3.
APEPPPRPPPALSP [Q96NP9 14-28]: the normalised SPOT signal, Boehringer light units (BLU); mean over the file's lines of this peptide was determined as 2330.
Turning to LEFPPRRPFARRRM [O00513 852-865], the normalised SPOT signal, Boehringer light units (BLU); mean over the file's lines of this peptide is 3050.
The molecule LEDSPKRPKEAENP [P51858 162-175] registered a normalised SPOT signal, Boehringer light units (BLU); mean over the file's lines of this peptide of 2.6.
The molecule LEIPPPKPPAPLLH [Q8WXI9 364-378] displayed a normalised SPOT signal, Boehringer light units (BLU); mean over the file's lines of this peptide of 712.
Same read-out and setting: under LDSALLRPGRIDRK [P47210 301-314] stands 117; under LSYSLYRPRKYLYV [Q9Y6D4 264-277], 288.
LDNALIRPGRFDMQ [Q9Y2Q2 234-247] gave a normalised SPOT signal, Boehringer light units (BLU); mean over the file's lines of this peptide of 80.5.
The molecule LDPALLRPGRLDRK [P43686 317-330] showed a normalised SPOT signal, Boehringer light units (BLU); mean over the file's lines of this peptide of 123.
The molecule LDMALRRPPRLRLS [Q8WWL8 44-57] had a normalised SPOT signal, Boehringer light units (BLU); mean over the file's lines of this peptide of 1210.
